± gives the standard deviation of the averaged measurements.
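Note: ATP exposure 15 min at 22 °C before imaging.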

The subject of this data set is ATP. The data set is described as follows: switch fluorescence ratio, 500 uM ATP over buffer (Cy3 cluster intensity, sum of 5 cycles each) (fold (ratio)); higher = stronger signal-on switching upon ATP binding; sequences stand for … in TCGTCGGCAGCGTCAGATGTGTATAAGAGACAGTTTTTTTTTTTTTTTTTTTTTTTTT…TC. The conditions noted are these: aptamer strand: ATP DNA aptamer (quencher-CACCTGGGGGAGTATTGCGGAGGAAGG + anchor), 100 nM annealed; ATP concentration: 500 uM. Put shortly:
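Switching-strand clusters labelled with Cy3 on a modified Illumina MiSeq flow-cell were annealed to 100 nM quencher-labelled ATP aptamer, imaged in selection buffer, and re-imaged after 15 min with 500 uM ATP at 22 °C. This was done over five cycles with NaOH stripping and re-annealing in between. The fluorescence ratio is summed target-cycle over summed buffer-cycle Cy3 intensity per cluster, averaged per switch-domain sequence, excluding clusters outside 100-1000 RFU.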
Take AAAAGGTTGT: the switch fluorescence ratio worked out at 0.999 ± 0.038.
With GGCGCGGCGG the figure was 1.02 ± 0.068.
Regarding TTTTACCTTT, the switch fluorescence ratio amounted to 1 ± 0.032.
Regarding CGAGTGGGGA, the switch fluorescence ratio was 1.04 ± 0.041.
With CGGGCAGATG, the switch fluorescence ratio worked out at 0.983 ± 0.028.
As to ACTTAGAAAT, the switch fluorescence ratio is 1.046 ± 0.01.
Regarding TGAAATAGGG, the switch fluorescence ratio worked out at 1.0312 ± 0.00097.
To TTGAGAAGGG belongs 1.04 ± 0.04; to GAAGTATGCA, 1.04 ± 0.031.
For the sequence CTATGATTTG, the switch fluorescence ratio was determined as 0.9976 ± 0.0042.
To GTTATCATTA belongs 1.02 ± 0.03; to GGATGCTGGT, 1.04 ± 0.053; to GGGATTGGGA, 0.99 ± 0.045.
To GAGATGGGGC belongs 1.09 ± 0.1; to AAGTCCTTCT, 1.07 ± 0.036.
For the sequence GGGGTTGCGT, the switch fluorescence ratio worked out at 0.996 ± 0.034.
As to GGGGCGGACG, the switch fluorescence ratio stood at 0.995 ± 0.047.
With ATTAATTTTC, the switch fluorescence ratio worked out at 0.997 ± 0.039.
On to TCCGGCGGCC, for which the switch fluorescence ratio worked out at 1.09 ± 0.024.
On to AGCAATTGCT, for which the switch fluorescence ratio stood at 1.05 ± 0.023.
Regarding TTCCTCAGAC, the switch fluorescence ratio stood at 1.6 ± 0.87.
In the case of TCTCAGAGTA, the switch fluorescence ratio amounted to 1 ± 0.012.
On to GTGGGCAGGT, for which the switch fluorescence ratio came to 0.988 ± 0.024.
On to CCAGTGTGAG, for which the switch fluorescence ratio was found to be 1.13 ± 0.039.
With TGATATCTTG, the switch fluorescence ratio amounted to 0.9862 ± 0.0028.
To ATATGTGAGG belongs 0.985 ± 0.0073; to AGACACGGGG, 1.06 ± 0.02; to CGGAGAAGGA, 0.98471 ± 0.00067.
In the case of AATGAAAGGT, the switch fluorescence ratio worked out at 1.01 ± 0.022.
For ACTGTTAGGT, the switch fluorescence ratio was determined as 1.036 ± 0.0055.
To TAATCTAGAA belongs 1.019 ± 0.0017; to TATTTAGGAG, 0.999 ± 0.021; to TTCTATACCG, 0.982 ± 0.036.
For the sequence AGTGATGTTC, the switch fluorescence ratio worked out at 0.976 ± 0.016.
As to GCAGGGAGCG, the switch fluorescence ratio stood at 0.978 ± 0.027.
Consider ATTTTCGTTT, for which the switch fluorescence ratio was 0.945 ± 0.024.
With GGCGGGACCG the figure was 0.959 ± 0.03; with GTGTTAGGGT, 0.984 ± 0.035.
Consider CAGGGGGAGG, for which the switch fluorescence ratio turned out to be 1.03 ± 0.048.
As to TCGTGATTTT, the switch fluorescence ratio turned out to be 1 ± 0.035.
Take GAGAGGCTGT: the switch fluorescence ratio was 0.9538 ± 0.0062.
For the sequence TTTAAAGATC, the switch fluorescence ratio stood at 1 ± 0.021.
For TATAAGAAAA, the switch fluorescence ratio is 0.978 ± 0.013.
TGCGAGTATT: the switch fluorescence ratio is 1.038 ± 0.0023.
Regarding GCAATTCCGG, the switch fluorescence ratio stood at 1.21 ± 0.035.
As for TTCGTGTGGC, the switch fluorescence ratio was 0.932 ± 0.02.
Regarding GTTTTGTCAA, the switch fluorescence ratio was determined as 1.02 ± 0.0038.
Take ACTTGAGGAT: the switch fluorescence ratio is 1 ± 0.017.
Consider CCCAGGAGGC, for which the switch fluorescence ratio was found to be 1.08 ± 0.03.
For the sequence TTACCCGTCA, the switch fluorescence ratio was 1.06 ± 0.044.
Consider ATTTTGAAAG, for which the switch fluorescence ratio was 1.01 ± 0.022.
To CATATCTGTT belongs 1.02 ± 0.024.
To GTTCTATGC belongs 1 ± 0.079; to AGGAATAGCG, 1.021 ± 0.0061; to TTGCGTGTGA, 1.01 ± 0.028.
In the case of GGGGGTCAGT, the switch fluorescence ratio was 0.991 ± 0.01.
With TTCTAAAAAT the figure was 1.06 ± 0.023.
Regarding TTTAAGCTAA, the switch fluorescence ratio amounted to 1.13 ± 0.23.
To TGTGGTATTA belongs 0.976 ± 0.036; to CGCGGGTTCA, 1.03 ± 0.037; to ATTAGGAAAT, 1.08 ± 0.1.
GGGAGTGTTT: the switch fluorescence ratio came out at 1 ± 0.026.
With TATAAGTTAT, the switch fluorescence ratio turned out to be 0.993 ± 0.029.
As to TCCAGTGTCG, the switch fluorescence ratio amounted to 1.01 ± 0.056.
In the case of TAAAAAGATG, the switch fluorescence ratio turned out to be 1.02 ± 0.044.
With AATACAGAGA the figure was 1.01 ± 0.055; with AGTGATAAGT, 0.969 ± 0.015.
With ATCGGTATAT, the switch fluorescence ratio was determined as 1.02 ± 0.039.
Take AGAATATTCT: the switch fluorescence ratio was 0.98 ± 0.014.
Turning to GCTGGGGATT, the switch fluorescence ratio was 0.987 ± 0.02.
With ACGTTGGTGC the figure was 1.06 ± 0.029.
With AAAACGAGTC the figure was 1.07 ± 0.031.
With CAGGGTGTGC, the switch fluorescence ratio was determined as 1.012 ± 0.00054.
For the sequence AGGATGGGG, the switch fluorescence ratio worked out at 0.9741 ± 0.0069.
As to ACATTTAATT, the switch fluorescence ratio came out at 0.983 ± 0.013.
Turning to ACTCGGGTAC, the switch fluorescence ratio came out at 1.79 ± 0.15.
For the sequence AAGGGCTTCA, the switch fluorescence ratio turned out to be 1.031 ± 0.0074.
For the sequence GTTTTGGGCT, the switch fluorescence ratio turned out to be 1.01 ± 0.032.
Regarding TTTGCTACGT, the switch fluorescence ratio was 1.01 ± 0.051.

(Values after the supplement of paper PMC10126150.)
